Data from patent US20260001928A1 (CORTERIA PHARMACEUTICALS, priority 2022, published 2026).
*1 amine or outer side, *2 acyl side, *3 side chain or, on linkers, in order; H or OH if unused. Where no end group is shown, it is not given here. Side-chain parts run from the residue outwards. [ ]: non-standard residue; d: D form. The star is where a group is joined. C18 diacid = O=C(O)CCCCCCCCCCCCCCCCC(=O)*; γGlu = O=C(O)[C@H](CCC(=O)[*:2])N[*:1]; NMeI = CC[C@H](C)[C@H](NC)C(=O)O; Api = NC1(C(=O)O)CCNCC1; Abu = CC[C@H](N)C(=O)O; Dap = NC[C@H](N)C(=O)O; AEEA = NCCOCCOCC(=O)O

T1: CRF1R receptor (UniProt P34998 24-415, limits assumed)
T1 sequence (looked up): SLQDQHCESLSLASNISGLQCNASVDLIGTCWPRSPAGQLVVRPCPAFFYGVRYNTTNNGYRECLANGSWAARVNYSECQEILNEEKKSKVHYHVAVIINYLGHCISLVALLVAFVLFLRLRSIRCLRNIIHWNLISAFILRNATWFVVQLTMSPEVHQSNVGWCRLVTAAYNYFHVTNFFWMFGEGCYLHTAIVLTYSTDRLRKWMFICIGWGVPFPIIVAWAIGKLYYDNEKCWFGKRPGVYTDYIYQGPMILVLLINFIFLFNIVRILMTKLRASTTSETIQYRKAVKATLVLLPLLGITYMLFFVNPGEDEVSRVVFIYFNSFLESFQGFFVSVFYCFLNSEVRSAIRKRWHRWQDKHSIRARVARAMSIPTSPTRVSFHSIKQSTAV


Legend:
[1] = biological target: human corticotropin-releasing factor 2a (CRF2a receptor) (human), Q13324; experiment: cell-based or functional assay
Chain of human corticotropin-releasing factor 2a (CRF2a receptor) (human), Q13324 (Q13324 20-411): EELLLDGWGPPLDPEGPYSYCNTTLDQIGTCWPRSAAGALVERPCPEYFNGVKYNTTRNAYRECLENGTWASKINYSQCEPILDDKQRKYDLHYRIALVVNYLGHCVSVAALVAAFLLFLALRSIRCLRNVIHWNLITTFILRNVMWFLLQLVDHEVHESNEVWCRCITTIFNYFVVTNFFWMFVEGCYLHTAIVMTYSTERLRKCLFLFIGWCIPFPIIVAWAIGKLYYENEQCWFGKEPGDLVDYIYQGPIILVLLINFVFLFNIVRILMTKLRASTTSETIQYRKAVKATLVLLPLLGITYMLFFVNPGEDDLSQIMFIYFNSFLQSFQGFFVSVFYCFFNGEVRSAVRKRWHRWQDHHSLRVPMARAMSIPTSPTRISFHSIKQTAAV

CRF1R receptor = biological target: T1, CRF1R receptor; experiment: cell-based or functional assay

Binder | EC50 [nM] (cAMP) [1] | Emax (% I) (CRF1R receptor) [%]
[NMeI]VLSLD[dV]PIKLK([AEEA-AEEA-γGlu-C18 diacid])KILLEQEKQKKQREQAETN[Api]QILAQV-NH2 (N-terminus assumed; SMILES CC[C@H](C)[C@H](NC)C(=O)N[C@H](C(=O)N[C@@H](CC(C)C)C(=O)N[C@@H](CO)C(=O)N[C@@H](CC(C)C)C(=O)N[C@@H](CC(=O)O)C(=O)N[C@@H](C(=O)N1CCC[C@H]1C(=O)N[C@H](C(=O)N[C@@H](CCCCN)C(=O)N[C@@H](CC(C)C)C(=O)N[C@@H](CCCCNC(=O)COCCOCCNC(=O)COCCOCCNC(=O)CC[C@H](NC(=O)CCCCCCCCCCCCCCCCC(=O)O)C(=O)O)C(=O)N[C@@H](CCCCN)C(=O)N[C@H](C(=O)N[C@@H](CC(C)C)C(=O)N[C@@H](CC(C)C)C(=O)N[C@@H](CCC(=O)O)C(=O)N[C@@H](CCC(N)=O)C(=O)N[C@@H](CCC(=O)O)C(=O)N[C@@H](CCCCN)C(=O)N[C@@H](CCC(N)=O)C(=O)N[C@@H](CCCCN)C(=O)N[C@@H](CCCCN)C(=O)N[C@@H](CCC(N)=O)C(=O)N[C@@H](CCCNC(=N)N)C(=O)N[C@@H](CCC(=O)O)C(=O)N[C@@H](CCC(N)=O)C(=O)N[C@@H](C)C(=O)N[C@@H](CCC(=O)O)C(=O)N[C@H](C(=O)N[C@@H](CC(N)=O)C(=O)NC1(C(=O)N[C@@H](CCC(N)=O)C(=O)N[C@H](C(=O)N[C@@H](CC(C)C)C(=O)N[C@@H](C)C(=O)N[C@@H](CCC(N)=O)C(=O)N[C@H](C(N)=O)C(C)C)[C@@H](C)CC)CCNCC1)[C@@H](C)O)[C@@H](C)CC)[C@@H](C)CC)C(C)C)C(C)C) [SEQ ID NO 117] | 0.63 | 3
[NMeI]VLSLD[dV]PIKLK([γGlu-C18 diacid])KILLEQEKQKKQREQAETNAQILAQV-NH2 (N-terminus assumed; SMILES CC[C@H](C)[C@H](NC)C(=O)N[C@H](C(=O)N[C@@H](CC(C)C)C(=O)N[C@@H](CO)C(=O)N[C@@H](CC(C)C)C(=O)N[C@@H](CC(=O)O)C(=O)N[C@@H](C(=O)N1CCC[C@H]1C(=O)N[C@H](C(=O)N[C@@H](CCCCN)C(=O)N[C@@H](CC(C)C)C(=O)N[C@@H](CCCCNC(=O)CC[C@H](NC(=O)CCCCCCCCCCCCCCCCC(=O)O)C(=O)O)C(=O)N[C@@H](CCCCN)C(=O)N[C@H](C(=O)N[C@@H](CC(C)C)C(=O)N[C@@H](CC(C)C)C(=O)N[C@@H](CCC(=O)O)C(=O)N[C@@H](CCC(N)=O)C(=O)N[C@@H](CCC(=O)O)C(=O)N[C@@H](CCCCN)C(=O)N[C@@H](CCC(N)=O)C(=O)N[C@@H](CCCCN)C(=O)N[C@@H](CCCCN)C(=O)N[C@@H](CCC(N)=O)C(=O)N[C@@H](CCCNC(=N)N)C(=O)N[C@@H](CCC(=O)O)C(=O)N[C@@H](CCC(N)=O)C(=O)N[C@@H](C)C(=O)N[C@@H](CCC(=O)O)C(=O)N[C@H](C(=O)N[C@@H](CC(N)=O)C(=O)N[C@@H](C)C(=O)N[C@@H](CCC(N)=O)C(=O)N[C@H](C(=O)N[C@@H](CC(C)C)C(=O)N[C@@H](C)C(=O)N[C@@H](CCC(N)=O)C(=O)N[C@H](C(N)=O)C(C)C)[C@@H](C)CC)[C@@H](C)O)[C@@H](C)CC)[C@@H](C)CC)C(C)C)C(C)C) [SEQ ID NO 138] | 0.05 | 10
[NMeI]VLSLD[dV]PIKLK([AEEA-AEEA-γGlu-C18 diacid])KILLEQEKQKKQREQAETN[Abu]QILAQV-NH2 (N-terminus assumed; SMILES CC[C@H](NC(=O)[C@H](CC(N)=O)NC(=O)[C@@H](NC(=O)[C@H](CCC(=O)O)NC(=O)[C@H](C)NC(=O)[C@H](CCC(N)=O)NC(=O)[C@H](CCC(=O)O)NC(=O)[C@H](CCCNC(=N)N)NC(=O)[C@H](CCC(N)=O)NC(=O)[C@H](CCCCN)NC(=O)[C@H](CCCCN)NC(=O)[C@H](CCC(N)=O)NC(=O)[C@H](CCCCN)NC(=O)[C@H](CCC(=O)O)NC(=O)[C@H](CCC(N)=O)NC(=O)[C@H](CCC(=O)O)NC(=O)[C@H](CC(C)C)NC(=O)[C@H](CC(C)C)NC(=O)[C@@H](NC(=O)[C@H](CCCCN)NC(=O)[C@H](CCCCNC(=O)COCCOCCNC(=O)COCCOCCNC(=O)CC[C@H](NC(=O)CCCCCCCCCCCCCCCCC(=O)O)C(=O)O)NC(=O)[C@H](CC(C)C)NC(=O)[C@H](CCCCN)NC(=O)[C@@H](NC(=O)[C@@H]1CCCN1C(=O)[C@H](NC(=O)[C@H](CC(=O)O)NC(=O)[C@H](CC(C)C)NC(=O)[C@H](CO)NC(=O)[C@H](CC(C)C)NC(=O)[C@@H](NC(=O)[C@@H](NC)[C@@H](C)CC)C(C)C)C(C)C)[C@@H](C)CC)[C@@H](C)CC)[C@@H](C)O)C(=O)N[C@@H](CCC(N)=O)C(=O)N[C@H](C(=O)N[C@@H](CC(C)C)C(=O)N[C@@H](C)C(=O)N[C@@H](CCC(N)=O)C(=O)N[C@H](C(N)=O)C(C)C)[C@@H](C)CC) [SEQ ID NO 114] | 0.18 | 6

Now from value to binder:

EC50 [nM] (cAMP) [1] | Emax (% I) (CRF1R receptor) [%] | Binder
0.16 | 32 | [NMeI]VLSLD[dV]PIKLK([γGlu-C18 diacid])KILLEQEKQKKQREQAETN[Api]QILAQV-NH2 (N-terminus assumed; SMILES CC[C@H](C)[C@H](NC)C(=O)N[C@H](C(=O)N[C@@H](CC(C)C)C(=O)N[C@@H](CO)C(=O)N[C@@H](CC(C)C)C(=O)N[C@@H](CC(=O)O)C(=O)N[C@@H](C(=O)N1CCC[C@H]1C(=O)N[C@H](C(=O)N[C@@H](CCCCN)C(=O)N[C@@H](CC(C)C)C(=O)N[C@@H](CCCCNC(=O)CC[C@H](NC(=O)CCCCCCCCCCCCCCCCC(=O)O)C(=O)O)C(=O)N[C@@H](CCCCN)C(=O)N[C@H](C(=O)N[C@@H](CC(C)C)C(=O)N[C@@H](CC(C)C)C(=O)N[C@@H](CCC(=O)O)C(=O)N[C@@H](CCC(N)=O)C(=O)N[C@@H](CCC(=O)O)C(=O)N[C@@H](CCCCN)C(=O)N[C@@H](CCC(N)=O)C(=O)N[C@@H](CCCCN)C(=O)N[C@@H](CCCCN)C(=O)N[C@@H](CCC(N)=O)C(=O)N[C@@H](CCCNC(=N)N)C(=O)N[C@@H](CCC(=O)O)C(=O)N[C@@H](CCC(N)=O)C(=O)N[C@@H](C)C(=O)N[C@@H](CCC(=O)O)C(=O)N[C@H](C(=O)N[C@@H](CC(N)=O)C(=O)NC1(C(=O)N[C@@H](CCC(N)=O)C(=O)N[C@H](C(=O)N[C@@H](CC(C)C)C(=O)N[C@@H](C)C(=O)N[C@@H](CCC(N)=O)C(=O)N[C@H](C(N)=O)C(C)C)[C@@H](C)CC)CCNCC1)[C@@H](C)O)[C@@H](C)CC)[C@@H](C)CC)C(C)C)C(C)C) [SEQ ID NO 141]
0.17 | 14 | [NMeI]VLSLD[dV]PIKLK([γGlu-C18 diacid])KILLEQEKQKKQREQAETN[Dap]QILAQV-NH2 (N-terminus assumed; SMILES CC[C@H](C)[C@H](NC)C(=O)N[C@H](C(=O)N[C@@H](CC(C)C)C(=O)N[C@@H](CO)C(=O)N[C@@H](CC(C)C)C(=O)N[C@@H](CC(=O)O)C(=O)N[C@@H](C(=O)N1CCC[C@H]1C(=O)N[C@H](C(=O)N[C@@H](CCCCN)C(=O)N[C@@H](CC(C)C)C(=O)N[C@@H](CCCCNC(=O)CC[C@H](NC(=O)CCCCCCCCCCCCCCCCC(=O)O)C(=O)O)C(=O)N[C@@H](CCCCN)C(=O)N[C@H](C(=O)N[C@@H](CC(C)C)C(=O)N[C@@H](CC(C)C)C(=O)N[C@@H](CCC(=O)O)C(=O)N[C@@H](CCC(N)=O)C(=O)N[C@@H](CCC(=O)O)C(=O)N[C@@H](CCCCN)C(=O)N[C@@H](CCC(N)=O)C(=O)N[C@@H](CCCCN)C(=O)N[C@@H](CCCCN)C(=O)N[C@@H](CCC(N)=O)C(=O)N[C@@H](CCCNC(=N)N)C(=O)N[C@@H](CCC(=O)O)C(=O)N[C@@H](CCC(N)=O)C(=O)N[C@@H](C)C(=O)N[C@@H](CCC(=O)O)C(=O)N[C@H](C(=O)N[C@@H](CC(N)=O)C(=O)N[C@@H](CN)C(=O)N[C@@H](CCC(N)=O)C(=O)N[C@H](C(=O)N[C@@H](CC(C)C)C(=O)N[C@@H](C)C(=O)N[C@@H](CCC(N)=O)C(=O)N[C@H](C(N)=O)C(C)C)[C@@H](C)CC)[C@@H](C)O)[C@@H](C)CC)[C@@H](C)CC)C(C)C)C(C)C) [SEQ ID NO 140]
0.05 | 13 | [NMeI]VLSLD[dV]PIKLK([γGlu-C18 diacid])KILLEQEKQKKQREQAETN[Abu]QILAQV-NH2 (N-terminus assumed; SMILES CC[C@H](NC(=O)[C@H](CC(N)=O)NC(=O)[C@@H](NC(=O)[C@H](CCC(=O)O)NC(=O)[C@H](C)NC(=O)[C@H](CCC(N)=O)NC(=O)[C@H](CCC(=O)O)NC(=O)[C@H](CCCNC(=N)N)NC(=O)[C@H](CCC(N)=O)NC(=O)[C@H](CCCCN)NC(=O)[C@H](CCCCN)NC(=O)[C@H](CCC(N)=O)NC(=O)[C@H](CCCCN)NC(=O)[C@H](CCC(=O)O)NC(=O)[C@H](CCC(N)=O)NC(=O)[C@H](CCC(=O)O)NC(=O)[C@H](CC(C)C)NC(=O)[C@H](CC(C)C)NC(=O)[C@@H](NC(=O)[C@H](CCCCN)NC(=O)[C@H](CCCCNC(=O)CC[C@H](NC(=O)CCCCCCCCCCCCCCCCC(=O)O)C(=O)O)NC(=O)[C@H](CC(C)C)NC(=O)[C@H](CCCCN)NC(=O)[C@@H](NC(=O)[C@@H]1CCCN1C(=O)[C@H](NC(=O)[C@H](CC(=O)O)NC(=O)[C@H](CC(C)C)NC(=O)[C@H](CO)NC(=O)[C@H](CC(C)C)NC(=O)[C@@H](NC(=O)[C@@H](NC)[C@@H](C)CC)C(C)C)C(C)C)[C@@H](C)CC)[C@@H](C)CC)[C@@H](C)O)C(=O)N[C@@H](CCC(N)=O)C(=O)N[C@H](C(=O)N[C@@H](CC(C)C)C(=O)N[C@@H](C)C(=O)N[C@@H](CCC(N)=O)C(=O)N[C@H](C(N)=O)C(C)C)[C@@H](C)CC) [SEQ ID NO 139]
